Data on 1 protein can be found in patent US5459256A, “Lipophilic, aminohydrolase-activated prodrugs” (priority 1991, dated 1995).

Holding throughout (test): purified protein, by the assay type
Holding throughout (conditions): other: pH 7.4 and 37° C.

Substrate in series [1]: CNc1ncnc2c1ncn2[C@@H]1O[C@H](CO)C[C@@H]1F
Substrate in series [2]: Nc1ncnc2c1ncn2[C@H]1CC[C@@H](CO)O1
Substrate in series [3]: OC[C@@H]1C[C@H](F)[C@H](n2cnc3c(Cl)ncnc32)O1
Substrate in series [4]: Nc1ncnc2c1ncn2[C@@H]1O[C@H](CO)C[C@@H]1F

B1: adenosine deaminase (adenosine aminohydrolase, EC 3.5.4.4) (Bos taurus) (protein)
chain: MAQTPAFNKPKVELHVHLDGAIKPETILYYGRKRGIALPADTPEELQNIIGMDKPLSLPEFLAKFDYYMPAIAGCREAVKRIAYEFVEMKAKDGVVYVEVRYSPHLLANSKVEPIPWNQAEGDLTPDEVVSLVNQGLQEGERDFGVKVRSILCCMRHQPSWSSEVVELCKKYREQTVVAIDLAGDETIEGSSLFPGHVKAYAEAVKSGVHRTVHAGEVGSANVVKEAVDTLKTERLGHGYHTLEDATLYNRLRQENMHFEVCPWSSYLTGAWKPDTEHPVVRFKNDQVNYSLNTDDPLIFKSTLDTDYQMTKNEMGFTEEEFKRLNINAAKSSFLPEDEKKELLDLLYKAYGMPSPASAEQCL
One may read the Km as the substrate concentration at which the rate is half of its maximum. Regarding B1, the Km in series [1] came to 110 µM; in series [2] it was 14 µM; in series [3], 7500 µM; in series [4], 330 µM.
